The source of these data is publication PMC9654219, “Molecular Mechanism of Sirtuin 1 Modulation by the AROS Protein” (International Journal of Molecular Sciences, 2022).

The labels stand for the following.
B1: mini-Sirt1ex687 (domain or fragment)
chain: GPYTFVQQHLMIGTDPRTILKDLLPETIPPPELDDMTLWQIVINILSEPPKRKKRKDINTIEDAVKLLQECKKIIVLTGAGVSVSCGIPDFRSRDGIYARLAVDFPDLPDPQAMFDIEYFRKDPRPFFKFAKEIYPGQFQPSLCHKFIALSDKEGKLLRNYTQNIDTLEQVAGIQRIIQCHGSFATASCLICKYKVDCEAVRGDIFNQVVPRCPRCPADEPLAIMKPEIVFFGENLPEQFHRAMKYDKDEVDLLIVIGSSLKVRPVALIPSSIPHEVPQILINREPLPHLHFDVELLGDCDVIINELCHRLGGEYAKLCCNPVGGGSGGGSQYLFLPPNRYIFHGAEVYSDSEDDVLSSSSCGSNSDSGTCQSPSLEE
B2: active regulator of Sirt1 (AROS), full length, residues 1-136 (natural protein, human, UniProt Q86WX3 1-136, looked up)
chain: MSAALLRRGLELLAASEAPRDPPGQAKPRGAPVKRPRKTKAIQAQKLRNSAKGKVPKSALDEYRKRECRDHLRVNLKFLTRTRSTVAESVSQQILRQNRGRKACDRPVAKTKKKKAEGTVFTEEDFQKFQQEYFGS
notes: human AROS (RPS19BP1), residues 1-136, with N-terminal hexahistidine tag and TEV protease cleavage site (modified pET19b); No tag removal is described; 15N-labelled for the NMR titrations; In MST either AROS or Sirt1 carried Cy5 on lysines; also called AROS 1–136; full-length AROS; not shown: His6, N-terminal, kept
B6: Sirt1 144–230 (N-terminus and SBD) (domain or fragment, human, UniProt Q96EB6 144-230, looked up)
chain: DNLLFGDEIITNGFHSCESDEEDRASHASSSDWTPRPRIGPYTFVQQHLMIGTDPRTILKDLLPETIPPPELDDMTLWQIVINILSE
notes: also called Sirt1-SBD

The target of assay [1] is B2. Kind of assay: MST; either AROS or Sirt1 labelled with Cy5-NHS ester (40–120 nM labelled protein); 50 mM Na2HPO4/NaH2PO4 pH 7.0, 250 mM NaCl, 2 mg/mL BSA, 20 °C; Monolith NT.115. As to conditions: both partners purified.
Assay [2] addresses T1, AROS 1–89 (N-terminus of AROS) (human, UniProt Q86WX3 1-89).
T1 construct: human AROS (RPS19BP1), residues 1-89; Preparation is told for 'human AROS constructs' in general
T1 sequence (looked up): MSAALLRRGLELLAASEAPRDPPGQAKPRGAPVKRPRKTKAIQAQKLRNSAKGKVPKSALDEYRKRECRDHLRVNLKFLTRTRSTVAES
The assay is described as above. As to conditions: both partners purified.

For another assay, the target named is T2, full-length Sirt1 (human, UniProt Q96EB6 1-747).
T2 sequence (looked up): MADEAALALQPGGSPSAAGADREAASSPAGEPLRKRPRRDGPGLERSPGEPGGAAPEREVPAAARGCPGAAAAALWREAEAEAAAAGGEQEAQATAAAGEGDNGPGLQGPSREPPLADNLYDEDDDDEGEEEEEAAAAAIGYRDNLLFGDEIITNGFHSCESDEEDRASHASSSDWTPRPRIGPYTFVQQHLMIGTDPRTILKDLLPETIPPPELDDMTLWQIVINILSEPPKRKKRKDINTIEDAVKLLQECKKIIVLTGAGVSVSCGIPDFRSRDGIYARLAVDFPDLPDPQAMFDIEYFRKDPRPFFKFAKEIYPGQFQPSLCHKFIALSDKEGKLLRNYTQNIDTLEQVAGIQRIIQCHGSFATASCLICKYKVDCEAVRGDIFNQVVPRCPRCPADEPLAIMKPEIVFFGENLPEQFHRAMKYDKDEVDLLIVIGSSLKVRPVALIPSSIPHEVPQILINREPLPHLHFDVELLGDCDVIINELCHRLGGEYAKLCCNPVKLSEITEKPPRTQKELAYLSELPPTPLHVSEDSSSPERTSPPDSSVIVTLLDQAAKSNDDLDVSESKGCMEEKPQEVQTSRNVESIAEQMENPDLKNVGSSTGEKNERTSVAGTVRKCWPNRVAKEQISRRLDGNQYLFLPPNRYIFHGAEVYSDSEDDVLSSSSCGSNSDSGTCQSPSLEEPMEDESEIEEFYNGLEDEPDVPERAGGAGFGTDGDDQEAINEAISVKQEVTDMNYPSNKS
The assay is described as follows: cell-based or functional assay.

A further assay addresses T3, Sirt5 residues 34–302 (human, UniProt Q9NXA8 34-302).
T3 construct: human Sirt5, residues 34-302 (pET151/D-TOPO); source: E. coli BL21 (DE3) CodonPlus, purified (Ni beads, TEV cleavage, S200 gel filtration)
T3 sequence (looked up): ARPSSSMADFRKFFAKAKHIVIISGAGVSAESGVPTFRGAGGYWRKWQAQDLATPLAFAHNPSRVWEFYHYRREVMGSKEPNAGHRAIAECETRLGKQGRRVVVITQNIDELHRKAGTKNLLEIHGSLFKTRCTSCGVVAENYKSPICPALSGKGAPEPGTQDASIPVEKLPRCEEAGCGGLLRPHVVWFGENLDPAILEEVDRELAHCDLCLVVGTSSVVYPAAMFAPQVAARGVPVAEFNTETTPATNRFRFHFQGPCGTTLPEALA
The assay is described as follows: cross-linking; 2 mM DSSO, 50 µM of each protein, 50 mM NaHPO4 pH 7, 250 mM NaCl, RT; SDS-PAGE; bands analysed by LC-ESI-MS/MS. As to conditions: both partners purified.

For the assay “mini-Sirt1ex687”, the target named is B1. Kind of assay: MST; either AROS or Sirt1 labelled with Cy5-NHS ester (40–120 nM labelled protein); 50 mM Na2HPO4/NaH2PO4 pH 7.0, 250 mM NaCl, 2 mg/mL BSA, 20 °C; Monolith NT.115. As to conditions: both partners purified.
For assay [3], the target named is B6. The assay is described as above. As to conditions: both partners purified.
The next assay deals with T4, Sirt3 residues 118–399 (human, UniProt Q9NTG7 118-399).
T4 construct: human Sirt3, residues 118-399 (pVFT3S); source: E. coli BL21 (DE3) CodonPlus, purified (Ni beads, TEV cleavage, ion exchange, S200 gel filtration)
T4 sequence (looked up): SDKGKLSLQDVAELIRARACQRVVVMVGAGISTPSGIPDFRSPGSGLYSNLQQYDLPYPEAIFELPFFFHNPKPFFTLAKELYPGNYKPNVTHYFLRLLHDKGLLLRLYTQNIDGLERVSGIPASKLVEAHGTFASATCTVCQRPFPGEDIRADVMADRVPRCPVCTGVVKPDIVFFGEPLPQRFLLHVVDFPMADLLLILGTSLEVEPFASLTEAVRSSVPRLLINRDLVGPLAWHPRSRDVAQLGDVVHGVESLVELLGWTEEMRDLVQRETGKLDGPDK
Kind of assay: crystal structure; 10 mg/mL Sirt3 pre-incubated with 1 mM AROS peptide 62–71 and 1 mM AROS peptide 96–109; 12% PEG 8.000, 0.1 M HEPES pH 7.5, 0.2 M NaCl, 20 °C; 3.27 Å. As to conditions: both partners purified.

The term Kd denotes the equilibrium constant for the complex coming apart.

As for B1, the Kd in assay [1] was found to be 1.3 ± 0.2 µM; in assay [2] it was 65 ± 9 µM. Take B2: the “increase of KM for the acetylated FdL substrate peptide with 40 µM AROS (FdL activity assay, substrate titration)” value in the assay with full-length Sirt1 was roughly 3 fold. The binding result with Sirt5 residues 34–302 is listed as “binds”.

B3: AROS peptide 96-109 (peptide)
peptide: RQNRGRKACDRPVA
notes: human AROS (RPS19BP1), residues 96-109; also called AROS96-109; AROS 96–109; source: synthetic peptide, bought: GL Biochem
B3 displayed a Kd in the assay with mini-Sirt1ex687 of 151 ± 31 µM.

B4: AROS peptide 62-71 (peptide)
peptide: EYRKRECRDH
notes: human AROS (RPS19BP1), residues 62-71; also called AROS62-71; AROS 62–71; source: synthetic peptide, bought: GL Biochem
As for B4, the Kd with mini-Sirt1ex687 is 86 ± 16 µM; in assay [3] it was 166 ± 24 µM. Besides, the binding result with Sirt3 residues 118–399 is “binds”.

B5: AROS peptide 80-91 (peptide)
peptide: TRTRSTVAESVS
notes: human AROS (RPS19BP1), residues 80-91; also called AROS80-91; AROS 80–91; source: synthetic peptide, bought: GL Biochem
Turning to B5, the dissociation constant (Kd) in the assay with mini-Sirt1ex687 turned out to be 721 ± 310 µM; in assay [3] it was 579 ± 102 µM.

Turning to B6, the affinity in assay [2], expressed as Kd, was 209 ± 67 µM.
